± gives the standard deviation of the averaged measurements.
The sequences below were run on Saccharomyces cerevisiae (assay: protein stability index of tFT-peptide fusion (C-terminal peptide) (PSI (0-1 scale)); higher = more stable (slower turnover)). Conditions: genetic background: wild type; temperature: 30 C.
Experimental: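 Multiplexed protein stability (MPS) profiling in S. cerevisiae. Random 12-aa peptides (tFT-X12 library) are fused to the C-terminus of a sfGFP-mCherry tandem fluorescent timer, after mCherry and a GGGS linker. Cells are FACS-sorted into 8 mCherry/sfGFP bins and deep-sequenced. The protein stability index (PSI) is the read-weighted bin average, scaled from 0 (unstable) to 1 (stable). Only peptides with >10 reads are reported; cells were grown at 30 °C in SC-His with glucose.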
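Also: PSI is a weighted mean of sequencing reads over stability bins, variants kept only with over 10 reads, mCherry proximal and sfGFP distal, peptide attached via GGGS linker.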

For CLESKTGYEVMG, which protein stability index is on record?
The protein stability index was 0.7065 ± 0.0052.

For CLFIAGGSDLSH, which protein stability index is on record?
The protein stability index was 0.7 ± 0.039.

For CLFSVENNNILG, which protein stability index is on record?
Its protein stability index is 0.704 ± 0.0015.

Which protein stability index does the source give for CLGLRFDFYGFV here?
Its protein stability index is 0.702 ± 0.065.

CLGLVSNCGLYV was tested. Which protein stability index did it give?
Its protein stability index is 0.674 ± 0.041.

CLHTSVYFHLQR was tested. Which protein stability index did it give?
Its protein stability index is 0.669 ± 0.04.

With CLLLVLCKFGLL as the sequence, how does the protein stability index read?
The protein stability index was 0.556 ± 0.023.

CLRRTSLEDRRR was tested. Which protein stability index did it give?
The protein stability index was 0.704 ± 0.037.

CLTSSIFSRSFA was tested. Which protein stability index did it give?
The protein stability index was 0.632 ± 0.04.

How did the protein stability index turn out when CLVSVDYFPPKL was run?
Its protein stability index is 0.75 ± 0.16.

CLWRGDEGRVPW was tested. Which protein stability index did it give?
The protein stability index was 0.7139 ± 0.0026.

How did the protein stability index turn out when CMVRGCFNHCGW was run?
Its protein stability index is 0.669 ± 0.024.

CNSRVSAVGLII was tested. Which protein stability index did it give?
The protein stability index was 0.6303 ± 0.0018.

How did the protein stability index turn out when CPALSPSPTLAS was run?
Its protein stability index is 0.68 ± 0.15.

With CPGLCVFFSPDY as the sequence, how does the protein stability index read?
Its protein stability index is 0.661 ± 0.044.

CPGTSRADFSAV was tested. Which protein stability index did it give?
The protein stability index was 0.681 ± 0.044.

CPLPLPPLHESF was tested. Which protein stability index did it give?
The protein stability index was 0.674 ± 0.031.

CPPPPPPPASPH was tested. Which protein stability index did it give?
Its protein stability index is 0.698 ± 0.074.

For CPPPTPPAPPLP, which protein stability index is on record?
The protein stability index was 0.74 ± 0.033.

How did the protein stability index turn out when CPPRPCTASIVR was run?
The protein stability index was 0.632 ± 0.036.

With CPRRVAVAGETS as the sequence, how does the protein stability index read?
The protein stability index was 0.697 ± 0.044.

CPVFYRYCHPPH was tested. Which protein stability index did it give?
The protein stability index was 0.707 ± 0.047.

For CRCVRVGSVVLD, which protein stability index is on record?
Its protein stability index is 0.632 ± 0.016.

For CREWNKAGWGNV, which protein stability index is on record?
Its protein stability index is 0.702 ± 0.014.

Which protein stability index does the source give for CRGRGFVVGGRR here?
Its protein stability index is 0.687 ± 0.035.

For CRISHPPLGGGS, which protein stability index is on record?
The protein stability index was 0.652 ± 0.02.

With CRRCQRNRVLDG as the sequence, how does the protein stability index read?
Its protein stability index is 0.673 ± 0.068.

Which protein stability index does the source give for CRRHPLTVVPIL here?
The protein stability index was 0.619 ± 0.028.

For CRVSIVPIKRYS, which protein stability index is on record?
The protein stability index was 0.578 ± 0.099.

With CRVVRGGEGLGG as the sequence, how does the protein stability index read?
Its protein stability index is 0.652 ± 0.0081.

How did the protein stability index turn out when CRWLGELGVWVF was run?
Its protein stability index is 0.637 ± 0.062.

CSCSTFWFFFGR was tested. Which protein stability index did it give?
The protein stability index was 0.724 ± 0.026.

CSGEGDQWLGVR was tested. Which protein stability index did it give?
Its protein stability index is 0.7139 ± 0.0028.

For CSGFPPPPHSSL, which protein stability index is on record?
Its protein stability index is 0.6812 ± 0.00089.

For CSGLTLLRFFVW, which protein stability index is on record?
Its protein stability index is 0.654 ± 0.064.

For CSGPARERPVRF, which protein stability index is on record?
The protein stability index was 0.709 ± 0.062.

Which protein stability index does the source give for CSLLFSLNLMPS here?
Its protein stability index is 0.666 ± 0.063.

With CSLPPSPAVPPP as the sequence, how does the protein stability index read?
Its protein stability index is 0.644 ± 0.022.

Which protein stability index does the source give for CSLQCLGWPISS here?
The protein stability index was 0.739 ± 0.087.

With CSNGVPLTVLLM as the sequence, how does the protein stability index read?
Its protein stability index is 0.525 ± 0.0057.

Which protein stability index does the source give for CSRFPYSHSLSQ here?
The protein stability index was 0.716 ± 0.016.

For CSRLDVSEVVGD, which protein stability index is on record?
Its protein stability index is 0.663 ± 0.074.

How did the protein stability index turn out when CSSVGGYGGFEV was run?
Its protein stability index is 0.616 ± 0.013.

For CSVCMSSSRLFS, which protein stability index is on record?
Its protein stability index is 0.733 ± 0.014.

For CTGDLSHVLFGI, which protein stability index is on record?
Its protein stability index is 0.725 ± 0.016.

With CTTSCARWVTTW as the sequence, how does the protein stability index read?
The protein stability index was 0.647 ± 0.02.

Which protein stability index does the source give for CTVPGLTPKCIY here?
The protein stability index was 0.581 ± 0.042.

CTYAPSGRNSHF was tested. Which protein stability index did it give?
The protein stability index was 0.7656 ± 0.0035.

With CVDAFLVRLVFM as the sequence, how does the protein stability index read?
The protein stability index was 0.568 ± 0.013.

CVGLGGPPGGCG was tested. Which protein stability index did it give?
The protein stability index was 0.603 ± 0.091.

How did the protein stability index turn out when CVIVCETYFQCA was run?
Its protein stability index is 0.53 ± 0.0088.

For CVLRTSQPSCPG, which protein stability index is on record?
Its protein stability index is 0.627 ± 0.023.

For CVLSFVRGCLGA, which protein stability index is on record?
The protein stability index was 0.587 ± 0.067.

For CVRPSFMSRSLR, which protein stability index is on record?
Its protein stability index is 0.719 ± 0.064.

With CVRRKYIGGGEG as the sequence, how does the protein stability index read?
The protein stability index was 0.673 ± 0.025.

How did the protein stability index turn out when CVSTYLTCSITS was run?
The protein stability index was 0.54 ± 0.022.

CWGVGGRTVING was tested. Which protein stability index did it give?
The protein stability index was 0.671 ± 0.049.

How did the protein stability index turn out when CYAVEACWASCA was run?
The protein stability index was 0.597 ± 0.0087.

For CYMFFNPSFNRR, which protein stability index is on record?
The protein stability index was 0.712 ± 0.017.

With CYPFSGLWPPPP as the sequence, how does the protein stability index read?
Its protein stability index is 0.717 ± 0.018.

For CYVGALQKCGTR, which protein stability index is on record?
Its protein stability index is 0.674 ± 0.01.

How did the protein stability index turn out when DAELYLPSPTRL was run?
Its protein stability index is 0.666 ± 0.064.

How did the protein stability index turn out when DAGRLLIVSVDS was run?
Its protein stability index is 0.662 ± 0.036.

With DAPEKQDKHINE as the sequence, how does the protein stability index read?
The protein stability index was 0.719 ± 0.088.

With DCFSASIHYCPS as the sequence, how does the protein stability index read?
Its protein stability index is 0.714 ± 0.059.

How did the protein stability index turn out when DCLRQTVPEGAM was run?
Its protein stability index is 0.723 ± 0.069.

DCYFNVHFKSIG was tested. Which protein stability index did it give?
The protein stability index was 0.654 ± 0.074.

For DDATLAVCRGWV, which protein stability index is on record?
The protein stability index was 0.731 ± 0.028.

Which protein stability index does the source give for DDFPNKHVEPKA here?
Its protein stability index is 0.658 ± 0.014.

DDGGSVTERDKS was tested. Which protein stability index did it give?
The protein stability index was 0.649 ± 0.007.

How did the protein stability index turn out when DDPGPSTHPRSA was run?
Its protein stability index is 0.63 ± 0.0069.

For DDWCLVGGLCDC, which protein stability index is on record?
Its protein stability index is 0.684 ± 0.033.

How did the protein stability index turn out when DDWNLQEAQSLY was run?
The protein stability index was 0.703 ± 0.053.

With DERREADLYPGE as the sequence, how does the protein stability index read?
The protein stability index was 0.648 ± 0.059.

DERSWLPLFFST was tested. Which protein stability index did it give?
The protein stability index was 0.695 ± 0.035.

With DESWCVPCPSSL as the sequence, how does the protein stability index read?
The protein stability index was 0.648 ± 0.0065.

How did the protein stability index turn out when DETRQTYRNRKG was run?
The protein stability index was 0.728 ± 0.12.

Which protein stability index does the source give for DEVLVSGGKWWE here?
The protein stability index was 0.73 ± 0.1.

Which protein stability index does the source give for DFCPVYRVIIWN here?
The protein stability index was 0.646 ± 0.029.

For DFSNDCLRVLGD, which protein stability index is on record?
Its protein stability index is 0.673 ± 0.021.

For DFSSLIISFPFI, which protein stability index is on record?
The protein stability index was 0.627 ± 0.059.

DFVGVVGFLVAG was tested. Which protein stability index did it give?
Its protein stability index is 0.65 ± 0.032.

Which protein stability index does the source give for DGARECRDDVCS here?
The protein stability index was 0.675 ± 0.017.

For DGAVRLGVGGLG, which protein stability index is on record?
Its protein stability index is 0.682 ± 0.041.

With DGCLTKPGQCHG as the sequence, how does the protein stability index read?
The protein stability index was 0.646 ± 0.013.

Which protein stability index does the source give for DGGGGGGAPRVR here?
Its protein stability index is 0.715 ± 0.11.

DGGRGQGMLGGS was tested. Which protein stability index did it give?
Its protein stability index is 0.662 ± 0.063.

Which protein stability index does the source give for DGGSGQGMFGGS here?
Its protein stability index is 0.611 ± 0.039.

For DGKNSGHGLAKT, which protein stability index is on record?
The protein stability index was 0.702 ± 0.087.

Which protein stability index does the source give for DGSFWKGQGAGV here?
The protein stability index was 0.671 ± 0.011.

For DGTTAIAGPHPT, which protein stability index is on record?
Its protein stability index is 0.629 ± 0.052.

With DGVQTVPFSCRL as the sequence, how does the protein stability index read?
The protein stability index was 0.773 ± 0.28.

DHIALIWGCSNF was tested. Which protein stability index did it give?
Its protein stability index is 0.703 ± 0.06.

For DIAFFEGSGGTM, which protein stability index is on record?
Its protein stability index is 0.675 ± 0.096.

DIRRSSMFKPKS was tested. Which protein stability index did it give?
The protein stability index was 0.702 ± 0.074.

With DIYNRNKRRDIT as the sequence, how does the protein stability index read?
Its protein stability index is 0.644 ± 0.0067.

DKGTDKDDVKIM was tested. Which protein stability index did it give?
The protein stability index was 0.686 ± 0.011.

Which protein stability index does the source give for DLCLRSTLPLFL here?
The protein stability index was 0.585 ± 0.016.

Reference: the supplement of paper PMC10724198
